Experiment [1] concerns the target T1, glutathione S-transferase (GST) (UniProt P08515 1-218 = GST).
T1 construct: also called carrier protein GST
As to the kind of experiment: ELISA, Ab 0.050 µg/ml. A general note: ELISA stands for enzyme-linked immunosorbent assay.

Experiment [2] concerns the target T2, Mouse Id2: Histidine (mouse, UniProt P41136 1-134, limits assumed).
T2 construct: Fusion protein made in E. coli from vector pGW07; also called m-Id2: His; not shown: His tag
T2 sequence (looked up): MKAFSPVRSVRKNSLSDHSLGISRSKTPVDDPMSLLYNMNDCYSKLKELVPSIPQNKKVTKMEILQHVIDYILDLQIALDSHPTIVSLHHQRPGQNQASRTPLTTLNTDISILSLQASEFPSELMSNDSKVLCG
As to the kind of experiment: ELISA, Ab 0.010 µg/ml. As to the method:
(§1) The rabbit monoclonal anti-human Id3 (clone #3-3) and the rabbit monoclonal anti-mouse/human Id3 (clones #6-1, 16-1, 17-3, and 42-1) produced in Example 6 were tested reactivity against the following antigens: mouse Id1:His, human Id1:His, mouse Id2:His, human Id2:His, mouse Id3:His, human Id3:His, mouse Id4:His, human Id4:His and GST.
(§2) 1. Microtiter wells (prepared in accordance with Example 6) were coated (0.1 μg/well) with mouse Id1:His, human Id1:His, human Id2:His, human Id3:His, and 1.0 μg/well with GST. [0155] 2. Antibody Diluent: 0.25% (w/v) BSA in 0.015M KPO₄ Buffer, 0.85% (w/v) NaCl, 0.1% (w/v) NaN₃, pH=7.40 [0156] 3. Rabbit monoclonal anti-human Id3 (clone #3-3) prepared in Example 7 was diluted to […] with the antibody diluent. […] 4. Rabbit monoclonal anti-mouse/human Id3 (clones #6-1, 16-1, 17-3, 42-1) prepared in Example 7 was diluted to 0.005, 0.010, 0.025, 0.05, 0.10, 0.25, and 0.50 μg/ml with the antibody diluent. […] 5. Conjugate Diluent: 50% (v/v) which consists of an aqueous solution containing Fetal Bovine Serum in 0.05 M Tris, 1% (v/v) Proclin-300, pH 7.6. [0159] 6. Conjugate: Goat anti-rabbit IgG (H+L)-HRP conjugate. [0160] 7. TMB reagent. […] 8. Stop solution (1 N HCI). Method
(§3) 1. Dispense 100 μL of antibody diluent, diluted rabbit monoclonal human Id3, and mouse/human Id3 hybridoma supernatants into appropriate wells. […] 2. Incubate at room temperature with mechanical shaking at 750 rpm for 90 minutes. [0165] 3. Remove the incubation mixture by flicking plate content into an appropriate waste container followed by rinsing the wells 5 times with distilled water. [0166] 4. Strike the wells sharply onto absorbent paper or paper towels to remove all residual water droplets. [0167] 5. Dispense 100 μL of 1:50,000 Goat Anti-Rabbit IgG-HRP Conjugate Reagent into each well. Gently mix for 5 seconds. [0168] 6. Incubate at room temperature with mechanical shaking at 750 rpm for 90 minutes. [0169] 7. Repeat procedures 3 and 4. [0170] 8. Dispense 100 μL of TMB Reagent into each well. Gently mix for 5 seconds. [0171] 9. Incubate at room temperature with mechanical shaking at 750 rpm for 20 minutes. […] 10.

In a further experiment the target is T3, Human Id2: Histidine (human, UniProt Q02363 1-134, limits assumed).
T3 construct: Fusion protein made in E. coli from vector pGW07; also called h-Id2: His; not shown: His tag
T3 sequence (looked up): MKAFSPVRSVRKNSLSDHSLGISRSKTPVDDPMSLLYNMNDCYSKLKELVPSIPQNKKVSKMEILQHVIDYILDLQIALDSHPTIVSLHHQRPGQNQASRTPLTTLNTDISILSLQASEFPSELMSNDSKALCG
As to the kind of experiment: ELISA, Ab 0.025 µg/ml. As to the method: as §1, §2, §3

The next experiment concerns the target T4, Human Id1: Histidine (human, UniProt P41134 1-155, limits assumed).
T4 construct: Fusion protein made in E. coli from vector pGW07; also called h-Id1: his; not shown: His tag
T4 sequence (looked up): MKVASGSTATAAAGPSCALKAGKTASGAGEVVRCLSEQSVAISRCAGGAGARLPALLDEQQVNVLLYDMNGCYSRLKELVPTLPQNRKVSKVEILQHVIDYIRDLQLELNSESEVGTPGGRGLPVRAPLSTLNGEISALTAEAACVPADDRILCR
As to the kind of experiment: ELISA, Ab 0.025 µg/ml. As to the method:
as §1, §2, §3

Experiment [3] addresses T2, Mouse Id2: Histidine. Put plainly: ELISA, Ab 0.025 µg/ml. The procedure: as §1, §2, §3
Another experiment concerns the target T5, Mouse Id1: Histidine (mouse, UniProt P20067-2 1-148, limits assumed).
T5 construct: Fusion protein made in E. coli from vector pGW07; also called m-Id1-His; not shown: His tag
T5 sequence (looked up): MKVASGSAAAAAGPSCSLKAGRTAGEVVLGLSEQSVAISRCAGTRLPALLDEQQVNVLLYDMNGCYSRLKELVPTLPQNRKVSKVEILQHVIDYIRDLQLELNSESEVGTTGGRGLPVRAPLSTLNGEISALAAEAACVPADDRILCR
Put plainly: ELISA, Ab 0.025 µg/ml. As to the method: as §1, §2, §3

Experiment [4] concerns the target T1, glutathione S-transferase (GST). As to the kind of experiment: ELISA, Ab 0.010 µg/ml.
In experiment [5] the target is T6, Mouse Id3: Histidine (mouse, UniProt P41133 1-119).
T6 construct: Fusion protein made in E. coli from vector pGW07; also called m-Id3: His; Mouse Id3 (coated wells); not shown: His tag
T6 sequence: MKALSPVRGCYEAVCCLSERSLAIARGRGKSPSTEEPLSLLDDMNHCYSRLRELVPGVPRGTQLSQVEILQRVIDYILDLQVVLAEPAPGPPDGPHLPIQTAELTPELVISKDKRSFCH
Put plainly: ELISA, Ab 0.010 µg/ml. The procedure:
as §1, §2, §3

The target of experiment [6] is T7, Human Id3: Histidine (human, UniProt Q02535 1-119 at identity 1.00)).
T7 construct: Fusion protein made in E. coli from vector pGW07; also called h-Id3: His; Human Id3 (coated wells); not shown: His tag
T7 chain: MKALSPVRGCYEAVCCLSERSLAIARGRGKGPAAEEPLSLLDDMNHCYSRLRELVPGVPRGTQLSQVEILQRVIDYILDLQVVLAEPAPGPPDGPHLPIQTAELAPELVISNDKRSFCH
Put plainly: ELISA, Ab 0.010 µg/ml. As to the method: as §1, §2, §3

The target in experiment [7] is T6, Mouse Id3: Histidine. As to the kind of experiment: ELISA, Ab 0.025 µg/ml. The procedure:
as §1, §2, §3

The target of experiment [8] is T7, Human Id3: Histidine. As to the kind of experiment: ELISA, Ab 0.025 µg/ml. As to the method:
as §1, §2, §3

The values below come from US20070178531A1 (BIOCHECK, published 2007).

T1 sequence (P08515 whole entry): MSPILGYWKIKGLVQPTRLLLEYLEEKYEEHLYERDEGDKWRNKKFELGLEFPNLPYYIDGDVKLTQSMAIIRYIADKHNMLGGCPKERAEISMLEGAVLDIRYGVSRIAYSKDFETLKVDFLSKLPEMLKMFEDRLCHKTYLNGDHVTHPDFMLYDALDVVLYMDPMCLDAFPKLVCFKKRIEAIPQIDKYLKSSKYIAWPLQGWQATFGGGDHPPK

B1: rabbit monoclonal anti-human Id3, clone #BCH-4/#3-3 (antibody, V domains shown)
VH: QSVEESGGRLVTPGTPLTLTCTVSGIDLSSYAMSWVRQAPGKGLEWIGVIFPSNNVYYASWAKGRFTISKTSTTVDLKITSPTTEDTATYFCASMGAFDSWGPGTLVTVSS
VL: QVLTQTPSPVSAAVGGTVTINCQASQSIYNDNDLAWFQQKPGQPPKLLIYDASTLTSGVPSRFKGSGSGTQFTLTISDLDCDDAATYYCAARYSGNIYGFGGGTEVVVK
notes: Rabbit IgG from a rabbit hybridoma; also called h Id3 MoAb 3-3
Turning to B1, the A450 in experiment [1] came out at 0.048 A450; with Mouse Id2: Histidine [2], 0.045 A450; in the experiment with Human Id2: Histidine, 0.044 A450; with Human Id1: Histidine it was 0.049 A450; with Mouse Id2: Histidine [3], 0.048 A450; with Mouse Id1: Histidine it was 0.044 A450. Moreover, in experiment [4], the A450 was 0.045 A450.

B2: rabbit monoclonal anti-mouse/human Id3, clone #BCH-4/#16-1 (antibody, V domains shown)
VH: QSVEESGGRLVTPGTPLTLTCTASGFSLSSYYIHWVRQAPGKALEWIGYISDGGTTYYASWAKGRFTISKTSSTTVDLKMTSLTTEDTATYFCARQGFNIWGPGTLVTVSL
VL: AVLTQTPSPVSAAVGGTVTISCQSSQSVYNNNWLSWFQQKSGQPPKLLIYETSKLESGVPSRFKGSGSGTQFTLTIIDVQCDDAATYYCLGGYWTTSDNNIFGGGTEVVVK
notes: Rabbit IgG from a rabbit hybridoma; also called m/h Id3 MoAb 16-1
In the case of B2, the A450 worked out at 0.046 A450 in [1]; 0.049 A450 with Mouse Id2: Histidine [2]; 0.432 A450 in the experiment with Mouse Id3: Histidine [5]; 0.391 A450 with Human Id3: Histidine [6]; 0.045 A450 with Human Id2: Histidine; 0.046 A450 with Human Id1: Histidine. In addition, the A450 with Mouse Id2: Histidine [3] came out at 0.051 A450; with Mouse Id3: Histidine [7], 0.953 A450; with Mouse Id1: Histidine, 0.044 A450; in the experiment with Human Id3: Histidine [8], 0.802 A450; in [4] it was 0.046 A450.

B3: rabbit monoclonal anti-mouse/human Id3, clone #BCH-4/#17-3 (antibody, V domains shown)
VH: QSVEESGGRLVTPGTPLTLTCTASGFSLSNVYIHWVRQAPGKGLEWIGYISDGDTARYATWAKGRFTISKTSSTTVNLKMTSLTTEDTATYFCARQGFNIWGPGTLVTVSL
VL: AVLTQTPSPVSAAVGGTVSISCQSSQSVWNNNWLSWFQQKPGQPPKLLIYETSKLESGVPSRFKGSGSGTQFTLTISDVQCDDAATYYCLGGYWTTSDNNVFGGGTEVVVK
notes: Rabbit IgG from a rabbit hybridoma; also called m/h Id3 MoAb 17-3; BCH-3/#17-3
Regarding B3, the A450 in experiment [1] stood at 0.046 A450; with Mouse Id2: Histidine [2] it was 0.048 A450; in the experiment with Mouse Id3: Histidine [5] it was 0.69 A450; with Human Id3: Histidine [6], 0.581 A450; with Human Id2: Histidine, 0.054 A450; in the experiment with Human Id1: Histidine, 0.047 A450. The A450 was 0.05 A450 with Mouse Id2: Histidine [3]; 1.4 A450 with Mouse Id3: Histidine [7]; 0.045 A450 with Mouse Id1: Histidine; 1.27 A450 with Human Id3: Histidine [8]; 0.046 A450 in [4].

B4: rabbit monoclonal anti-mouse/human Id3, clone #BCH-4/#6-1 (antibody, V domains shown)
VH: QSVEESGGRLVTPGTPLTLTCTASGFSLSNVYIHWVRQAPGKGLEWIGYISDGDTARYATWAKGRFTISKTSSTTVNLKMTSLTTEDTATYFCARQGFNIWGPGTLVTVSL
VL: AVLTQTPSPVSAAVGGTVSISCQSSQSVWNNNWLSWFQQKPGQPPKLLIYETSKLESGVPSRFKGSGSGTQFTLTISDVQCDDAATYYCLGGYWTTSDNNVFGGGTEVVVK
notes: Rabbit IgG from a rabbit hybridoma; also called m/h Id3 MoAb 6-1
For B4, the A450 was found to be 0.047 A450 in experiment [1]; 0.048 A450 with Mouse Id2: Histidine [2]; 0.539 A450 in the experiment with Mouse Id3: Histidine [5]; 0.491 A450 with Human Id3: Histidine [6]; 0.045 A450 with Human Id2: Histidine; 0.048 A450 in the experiment with Human Id1: Histidine. Also, the A450 stood at 0.048 A450 with Mouse Id2: Histidine [3]; 1.13 A450 in the experiment with Mouse Id3: Histidine [7]; 0.046 A450 with Mouse Id1: Histidine; 0.974 A450 with Human Id3: Histidine [8]; 0.046 A450 in experiment [4].

B5: rabbit monoclonal anti-mouse/human Id3, clone #BCH-4/#42-1 (antibody, V domains shown)
VH: QSVEESGGRLVTPGTPLTLTCTASGFSLSSYYIHWVRQAPGKALEWIGYISDGGTTYYASWAKGRFTISKTSSTTVDLKMTSLTTEDTATYFCARQGFNIWGPGTLVTVSL
VL: AVLTQTPSPVSAAVGGTVTISCQSSQSVYNNNWLSWFQQKSGQPPKLLIYETSKLESGVPSRFKGSGSGTQFTLTIIDVQCDDAATYYCLGGYWSTSDNNIFGGGTEVVVK
notes: Rabbit IgG from a rabbit hybridoma; also called m/h Id3 MoAb 42-1
In the case of B5, the A450 was 0.049 A450 in experiment [1]; 0.05 A450 with Mouse Id2: Histidine [2]; 0.756 A450 with Mouse Id3: Histidine [5]; 0.713 A450 with Human Id3: Histidine [6]; 0.071 A450 in the experiment with Human Id2: Histidine; 0.043 A450 with Human Id1: Histidine. The A450 worked out at 0.052 A450 with Mouse Id2: Histidine [3]; 1.58 A450 in the experiment with Mouse Id3: Histidine [7]; 0.045 A450 with Mouse Id1: Histidine; 1.44 A450 with Human Id3: Histidine [8]; 0.045 A450 in [4].
